Measurements taken from publication PMC9646764 (Nature Communications, 2022).

Target: TcdB4.2 (full-length recombinant toxin B variant 4.2) (Clostridioides difficile)
Experiment: BLI; as a1, KD calculated with the BLItz system software from the indicated concentrations (Supplementary Fig. 7); KD called estimated
Settings: both partners purified

B1: mTFPI-Fc (Fc-tagged mouse TFPI) (Fc fusion)
chain: LSEEADDTDSELGSMKPLHTFCAMKADDGPCKAMIRSYFFNMYTHQCEEFIYGGCEGNENRFDTLEECKKTCIPGYEKTAVKAASGAERPDFCFLEEDPGLCRGYMKRYLYNNQTKQCERFVYGGCLGNRNNFETLDECKKICENPVHSPSPVNEVQMSDYVTDGNTVTDRSTVNNIVVPQSPKVPRRR
notes: source: Expi293F, transfected, purified from culture medium as His-tagged protein
B1 gave a Kd of ~63 nM.
